Results: US20240190937A1, “HUMAN INSULIN C-ALPHA-PEPTIDES AND METHODS OF USE” (The United States of America, as represented by the …, priority 2021, published 2024)

Assays:
IAPP = molecular target: T1, IAPP (Homo sapiens, UniProt P10997); test: IAPP aggregation assay (Thioflavin T fluorescence); assay type: biochemical; settings: 50 mmol/L IAPP plus 50 mmol/L peptide; 37° C.; range of 90-130 min; three replicates
T1 construct: IAPP (37 AA) (catalog number LT110006) (amidated C-terminal and disulfide bridge between Cys2 and Cys7) was from LifeTein; purchased LifeTein (Hillsborough, NJ) LT110006
T1 sequence (P10997 34-70 limits assumed): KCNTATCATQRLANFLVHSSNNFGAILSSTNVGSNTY
Text: Thioflavin T (ThT) was from MilliporeSigma (catalog number T3516; Rockville, MD). IAPP (37 AA) (catalog number LT110006) (amidated C-terminal and disulfide bridge between Cys2 and Cys7) was from LifeTein (Hillsborough, NJ), and C-peptide (catalog number AS-61127) was from AnaSpec (Fremont, CA). Cα-peptide was custom made (Genemed Synthesis, Inc., San Antonio, TX). Black 96-well microplates (chimney well) were from Greiner Bio-One (Frickenhausen, Germany). Soluble and monomeric IAPP was made according to published protocols (Stine et al., Methods Mol. Biol. 670:13-32, 2011; Tu et al., Biochemistry 54:666-676, 2015), and the AnaSpec Manual of SensoLyte Thioflavin T Aggregation Kit (catalog number AS-72214) was used for the IAPP aggregation assay, with final concentration of 1% DMSO and […] ThT in component A buffer. The buffer was used as blank and IAPP without inhibitors, and the final concentration of IAPP and C- and Cα-peptides was […] each in the inhibition assays. Amyloid kinetics were measured by increasing ThT fluorescent amyloid binding intensity (1ex 440 nm; 1em 485 nm; height 3 mm; flashes 12) for 36 cycles, 5 min per cycle, at 37° C. with 15 s of shaking (100 rpm) between the reads in the EnSpire Multimode Plate Reader (PerkinElmer, Inc., Waltham, MA).

β-Amyloid (1-42) = β-Amyloid (1-42) (Homo sapiens, UniProt P05067); test: β-Amyloid (1-42) fibrillation assay (ThT binding to amyloid); assay type: biochemical; settings: 50 μM β-Amyloid plus 50 μM peptide; time range of 60-240 min; three replicates
Chain of β-Amyloid (1-42) (P05067 672-713 limits assumed): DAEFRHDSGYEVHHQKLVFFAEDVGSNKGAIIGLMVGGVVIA
Method: FIGS. 21A-21C show inhibition of β-Amyloid (1-42) fibrillation by C- (C-pep) and Cα-peptides (Cα-pep). […] FIG. 21B is a box-whisker plot on C- and Cα-pep inhibition of β-Amyloid fibrillation in time range of 60-240 min. […] Fluorescence intensity (F.I.) represents ThT binding to amyloid. AUC represents area under curve calculated by Trapezoid rule. Aβ(1-42) represents 50 μM β-Amyloid plus buffer, C-pep represents 50 μM β-Amyloid plus 50 μM C-pep, and Cα-pep represents 50 μM β-Amyloid plus 50 μM Cα-pep.
Thioflavin T (ThT) was from MilliporeSigma (catalog number T3516; Rockville, MD). IAPP (37 AA) (catalog number LT110006) (amidated C-terminal and disulfide bridge between Cys2 and Cys7) was from LifeTein (Hillsborough, NJ), and C-peptide (catalog number AS-61127) was from AnaSpec (Fremont, CA). Cα-peptide was custom made (Genemed Synthesis, Inc., San Antonio, TX). Black 96-well microplates (chimney well) were from Greiner Bio-One (Frickenhausen, Germany). […] Amyloid kinetics were measured by increasing ThT fluorescent amyloid binding intensity (1ex 440 nm; 1em 485 nm; height 3 mm; flashes 12) for 36 cycles, 5 min per cycle, at 37° C. with 15 s of shaking (100 rpm) between the reads in the EnSpire Multimode Plate Reader (PerkinElmer, Inc., Waltham, MA).

Row | Substance | inhibition of IAPP fibrillation (ThT fluorescence intensity, AUC) (IAPP) | inhibition of β-Amyloid fibrillation (ThT fluorescence intensity, AUC) (β-Amyloid (1-42))
1 | EAEDLQGSLQPLALEGSLQ (C-alpha peptide; listed as Homo sapiens) [Cα-peptide, human 19-AA insulin C-peptide variant encoded by INS3B isoform; custom made by Genemed Synthesis] | inhibited IAPP fibrillation more efficiently than C-peptide | inhibits
2 | C-peptide: classical 31-AA human insulin C-peptide, AnaSpec catalog number AS-61127 (EAEDLQVGQVELGGGPGAGSLQPLALEGSLQ) | inhibition of IAPP fibrillation | not
